Data on one molecule can be found in PMC12669751, “Immunodominant antibodies against hemagglutinin in ferrets following infection with 2018 to 2019 influenza vaccine strains” (NPJ Vaccines, 2025).

The target of this test is TX/50 cell-version rHA1 (A/Texas/50/2012(H3N2) HA1) (Influenza A virus …, UniProt R4L1D1, strain). The test can be described thus: BLI. As to conditions: one partner purified.

B1: monoclonal antibody FluA-20 (antibody, V domains shown)
VH: QVQLEESGPGLVKPSETLSLTCSVSGVSVTSDIYYWTWIRQPPGKGLEWIGYIFYNGDTNYNPSLKSRVTMSIDTSKNEFSLRLTSVTAADTAVYFCARGTEDLGYCSSGSCPNHWGQGTLVTVSS
VL: DIVMTQSPSSLSASIGDRVTITCRPSQNIRSFLNWFQHKPGKAPKLLIYAASNLQSGVPSRFSGSGSGTEFTLTIRSLQPEDFATYYCQQSYNTPPTFGQGTKVEIK
notes: also called FluA-20 mAb; pan-H3 anti-HA1 mAb; copies: 2 + 2
In the case of B1, the binding result was “binds”.
